Assay results taken from patent publication US6797522B1, “Synthetic receptors” (The Trustees of Columbia University in the City of New York, priority 1996, dated 2004).

How the values were obtained:
[1] = target: T1, Leu Enkephalin (Homo sapiens, UniProt P01210); experiment: Color screening assay of bead-bound receptor libraries with Disperse Red-labelled substrate; assay type: binding; settings: Table 5, label = AA1-AA5
T1 construct: composed of two pentapeptides Tyr-Gly-Gly-Phe-LeuOH and Tyr-Gly-Gly-Phe-MetOH; purchased Bachem, Inc
Description: (§1) The synthetic receptor library is then assayed to find those members of the library which have the desired interaction with the labeled substrate. In the case where the desired interaction is binding to the substrate, the synthetic receptor library is mixed with a solution of the labeled substrate and those library members that bind to the labeled substrate are selected. This procedure is particularly simple when the synthetic receptor library members are bound to a solid support as shown in Scheme 2. In that case, solid support particles having receptors which bind the labeled substrate accumulate color or fluorescence or radioactivity (depending on the nature of the label used). Depending on the concentration of the labeled substrate used, the assay can be adjusted to detect binding of any desired strength: for example, if the amount of labeled substrate in the presence of the receptor library is adjusted to give a 100 μM concentration of free (unbound) labeled substrate, then assay will only detect template-substrate binding with association constants (k) of (100 μM)^−1 or greater.
(§2) A color assay method was developed for screening receptor library beads. The color dye used is Disperse Red 1 (available from Aldrich Inc.), a neutral diazo dye whose λmax is at 502 nm. Red color in various organic solvents is visible at concentration as low as 100 μM.
(§3) After receptor beads are treated with a substrate which has a color dye attached on it, the bead binding the substrate is stained and can be easily identified in a background of many colorless beads. The stained bead is the removed from the library by a microsyringe, and subjected to decode to identify its structure. The decoding process involves three operations: a) photolysis of the beads, b) silylation of liberated alcohols, c) injection into GC-EC machine. Once identified, the receptor is then resynthesized on large quantities of beads for confirmatory binding studies. […] From this spectrum, the structure of the receptor is identified as C3—OGLY-leu-phe-Ac, C7—OGLY-ala-Lys-Ac.
(§4) Some additional binding studies for Peptidosteroidal receptors with beta-Casomorphinamide and Des-Tyr Leu Enkahphalin, are shown in the following table 5 and are compared to the Leu Enkaphalin and Met Enkaphalin. [drawing 47]

[2] = target: T2, Met Enkephalin (Homo sapiens, UniProt P01210); experiment: as above; assay type: binding; settings: Table 5, label = AA1-AA5; for Kd: read-out: KD-MAX; for BOUND: percentage of library beads bound
T2 construct: composed of two pentapeptides Tyr-Gly-Gly-Phe-LeuOH and Tyr-Gly-Gly-Phe-MetOH; purchased Bachem, Inc
Description: as §1, §2, §3, §4

Kd ([1]; read-out: KD-MAX)	BOUND ([1]; percentage of library beads bound)	Kd [2]	BOUND [2]	Substance
81 µM	0.7%			GLY-ASP-PRO-PRO-LEU (GDPPL; printed: GLY-ASP-PRO-PRO-LEU)
		85 µM	0.5%	GLY-PHE-PRO-PRO-LEU (GFPPL; printed: GLY-PHE-PRO-PRO-LEU)
		75 µM	0.8%	PRO-THR-LYS-PHE-ALA (PTKFA; printed: PRO-THR-LYS-PHE-ALA)
